“And” between values parts separate entries of the source, which are not always exact repeats. Equal values may be shown once.
B1: GcdA, subunit of glutaconyl-CoA decarboxylase (Gcd) from Clostridium symbiosum (enzyme, UniProt B7TVP1 1-588, looked up)
chain: MNMYSMPGYFQNMPTIGKELVNPNPENEQEIKAVESDIHESIKKALDAGITSEEKLNERGQLSAMQRINALIDPGTWCPLNSLFNPENNKFGTTNIVNGLGRVDGKWVYIVASDNKKMAGAWVPGQAENLIRCSDAAKMMHLPLIYLLNCSGVEFPNQDKVYPNRRGGGTPFFRNSELNQLGIPVIVGIYGTNPAGGGYHSISPTILIAHQDANMAVGGAGILSGMNPKGYIDDEAAEQIIAAQIENSKLKVPAPGSVPIHYDETGFFREVYQNDLGVIDGIKKYISYLPAYNLEFFRVDTPKAPQLPAEDLYSIIPMNQKRPYDIYEVIARLFDNSEFSEYKKGYGPEMVTGLAKVNGLLVGVIANVQGLLMNYPEYKQNSVGIGGKLYRQGLIKMNEFVTLCARDRIPLIWLQDTTGIDVGDEAEKAELLGLGQSLIYSIENSKLPSLEITIRKASAAAHYVLGGPQGNNTNVFSIGTGACEYYVMPGETAANAMYSRKLVKAKKAGEDLQPIIGKMNDMIQMYTDKSRPKYCTEKGMVDEIVDMTEVRPYIQAFTEAAYQNPQSICPMHQMLTPRSTREFETFGK
notes: GcdA, hydrophilic carboxyltransferase subunit of glutaconyl-CoA decarboxylase, Clostridium symbiosum, 65 kDa; For LILBID-MS (soft mode) and EM the complex was cross-linked with glutaraldehyde (GraFix)
B2: GcdC1, biotin carrier subunit of glutaconyl-CoA decarboxylase (Gcd) from Clostridium symbiosum (natural protein, UniProt B7TVP4 1-149, looked up)
chain: MKYIATINGKRYEVEVERVEGYKSLDRNGVAAPKAPALASTAPVQRPAAPAPAAPAPAAAPAPAAAPAPVAAPAPAAAGATTVEAPMPGKVLDVKVTAGQVVKYGDVVAIMEAMKMETEIVAPADGTVSQILVKAGDPVDTGAAMVVLN
modifications: biotin covalently bound (C-terminal region)
notes: GcdC1, biotin carrier subunit of glutaconyl-CoA decarboxylase, Clostridium symbiosum, 15 kDa; N-terminal region of 30 amino acids, AP region of 48, C-terminal region of 71; Surmised: its biotin is what the monomeric avidin column holds
B4: GcdC2, biotin carrier subunit of glutaconyl-CoA decarboxylase (Gcd) from Clostridium symbiosum (natural protein, UniProt B7TVP3 1-139, looked up)
chain: MKYTATLNGKQYDVELERIGEYEPIPRYGEAAPAPAAPITAPAAAPAPVAAAPAPAPAPAAPAPAPAAGGTTVEAPMPGKVLDVKVAAGQAVKFGQVVITMEAMKMETEIVAPADGTVAQILVKAGDAVETGTAMVVLN
modifications: biotin covalently bound (C-terminal region)
notes: GcdC2, biotin carrier subunit of glutaconyl-CoA decarboxylase, Clostridium symbiosum, 14 kDa; N-terminal region of 30 amino acids, AP region of 39, C-terminal region of 70; Surmised: its biotin is what the monomeric avidin column holds

Tests used:
[1] = biological target: T1, Gcd (glutaconyl-CoA decarboxylase) from Clostridium symbiosum ([Clostridium] symbiosum, UniProt B7TVP1); assay: coupled spectrophotometric assay of crotonyl-CoA formation, […] nm; type: biochemical; settings: decarboxylation to crotonyl-CoA; biotin-dependent, biotin covalently bound to GcdC1/GcdC2; DDM-solubilized enzyme
T1 construct: gene gcdA

[2] = biological target: the molecule itself; assay: negative-stain electron microscopy, 3D reconstruction; glutaraldehyde-fixed Gcd (50-80 nM) at 200 mM NaCl, stained with 2% uranyl formate; 2D classification and low-resolution 3D map (cisTEM, RELION-3.0)
[3] = biological target: the molecule itself; assay: native MS; LILBID-MS, soft detection mode (14 mJ laser power); 3-7 uM glutaraldehyde-fixed and unconcentrated Gcd complex in 50 mM Tris-HCl pH 7.0, 0.05% DDM, 200 mM NaCl
[4] = biological target: B1; assay: affinity purification with mass spectrometry; Gcd solubilized from C. symbiosum membranes with 2% DDM in buffer A (50 mM phosphate pH 7.0, 400 mM NaCl, 0.05% DDM), loaded on monomeric avidin agarose, eluted with a biotin step gradient (0-2 mM); bands of SDS-PAGE identified by MALDI-TOF MS; settings: partners not purified
[5] = biological target: B4; assay: native MS; LILBID-MS, soft detection mode (14 mJ laser power); 3-7 uM glutaraldehyde-fixed and unconcentrated Gcd complex in 50 mM Tris-HCl pH 7.0, 0.05% DDM, 200 mM NaCl; settings: both partners purified
[6] = biological target: B2; assay: affinity purification with mass spectrometry; Gcd solubilized from C. symbiosum membranes with 2% DDM in buffer A (50 mM phosphate pH 7.0, 400 mM NaCl, 0.05% DDM), loaded on monomeric avidin agarose, eluted with a biotin step gradient (0-2 mM); bands of SDS-PAGE identified by MALDI-TOF MS; settings: partners not purified
[7] = biological target: B1; assay: native MS; LILBID-MS, soft detection mode (14 mJ laser power); 3-7 uM glutaraldehyde-fixed and unconcentrated Gcd complex in 50 mM Tris-HCl pH 7.0, 0.05% DDM, 200 mM NaCl; settings: both partners purified
[8] = biological target: B2; assay: as above; settings: both partners purified

`CC(C)(COP(=O)(O)OP(=O)(O)OC[C@H]1O[C@@H](n2cnc3c(N)ncnc32)[C@H](O)[C@@H]1OP(=O)(O)O)[C@@H](O)C(=O)NCCC(=O)NCCSC(=O)/C=C/CC(=O)O` [glutaconyl-CoA] was tested, and the “coupled spectrophotometric assay of crotonyl-CoA formation, 340 nm” value [1] was “Purified Gcd was enzymatically active with respect to crotonyl-CoA formation”.

B1 was tested, and the “stoichiometry N” value [2] was roughly 4 and the “stoichiometry N” value [3] was 4 and 2.

B2: binds [4].

B3: GcdD, small subunit of glutaconyl-CoA decarboxylase (Gcd) from Clostridium symbiosum (natural protein, UniProt B7TVP2 1-95, looked up)
chain: MWTEATMPFGQSVIVSLLGISVVFITLVTLALAIVLISKILRSIIKDGAQKPAPAAAPVVSDEADKETLAVLMATIGMDLELPADQFKIVNVKEL
notes: GcdD, small subunit of glutaconyl-CoA decarboxylase, Clostridium symbiosum, 10 kDa; N-terminal transmembrane helix (13-37), AP-rich region (51-60), C-terminal region (61-95)
B3: binds [5]; binds [6].

B4: binds [7]; binds [8].

B5: GcdB, subunit of glutaconyl-CoA decarboxylase (Gcd) from Clostridium symbiosum (enzyme, UniProt B7TVP5 1-379, looked up)
chain: MNFFEIMGEMLAQSGFTALTWKNLVMFAISFVLLYMAIKKQYEPLLLLPIAFGMFLANLPLADLMKESEPWYTQGVLRIMYGGVKSSLFPCLIFLCVGAMTDFGPLIANPISLLLGAAAQFGIYIAFMLANATGLFTVGEAAAIGIIGGADGPTAIYIANNLAPDLVAPIAVAAYSYMALIPMIQPPIMKLLTTKKERAIVMKQLRKVSKVEKVVFPVFVVLFCSLLLPSVAPLLGMLMLGNLFRESGVVERLSDTAQNALCNIVTIMLGTTVGATANGDIFLRVQTIAIIAMGLMAFCFSTVGGVLLGKLLCVVTGGKINPLIGSAGVSAVPMAARVSQTVGSKENPTNFLLMHAMGPNVAGVIGSAVAAGFFMLIFK
notes: GcdB, membrane-spanning subunit (11 putative transmembrane helices) of glutaconyl-CoA decarboxylase, Clostridium symbiosum, 35 kDa (39 kDa in the introduction)
B5 was tested, and the “stoichiometry N” value [2] was 2.

— PMC7145394, “Molecular and Low-Resolution Structural Characterization of the Na^+-Translocating Glutaconyl-CoA Decarboxylase From Clostridium symbiosum” (Frontiers in Microbiology, 2020)
